Assay results as given in article PMC8864007, “Evaluation of an ^131I-labeled HER2-specific single domain antibody fragment for the radiopharmaceutical therapy of HER2-expressing cancers” (Scientific Reports, 2022).
“And” between values parts separate entries of the source, which are not always exact repeats. Identical values can stand only once.

B1: VHH_1028 (VHH)
VHH: EVQLVESGGGLVQAGGSLRLSCAASGITFSINTMGWYRQAPGKQRELVALISSIGDTYYADSVRGRFTISRDNAKNTVYLQMNSLKPEDTAVYYCKRFRTAAQGTDYWGQGTQVTVSS
notes: Measured mass 12,844.0 Da (theoretical 12,844.2 Da); Engineered to have no lysine in its CDR regions; also called anti-HER2 VHH_1028; sdAb VHH_1028; source: developed and provided by Cereius, Inc; production and purification in Supplementary Materials
B2: iso-[^131I]SGMIB-VHH_1028 (VHH)
VHH: B1 VHH
notes: as the chain of m1; source: VHH_1028 conjugated with iso-[^131I]SGMIB, isolated by gel filtration (PD-10)
B3: iso-SGMIB-VHH_1028 (VHH)
VHH: B1 VHH
notes: as the chain of m1; Measured mass 13,147.6 Da (calculated 13,146.4 Da); also called unlabeled iso-SGMIB-VHH_1028; 1:1 iso-SGMIB-VHH_1028 conjugate; source: VHH_1028 reacted with iso-SGMIB, 1:1 conjugate isolated by HIC-HPLC

Experiments:
murine HER2 = target: T1, murine HER2 (Mus musculus, UniProt P70424); test: ELISA; affinity, specificity and species cross-reactivity by ELISA; details in Supplementary Materials
T1 construct: murine HER2
T1 sequence (P70424 23-1256): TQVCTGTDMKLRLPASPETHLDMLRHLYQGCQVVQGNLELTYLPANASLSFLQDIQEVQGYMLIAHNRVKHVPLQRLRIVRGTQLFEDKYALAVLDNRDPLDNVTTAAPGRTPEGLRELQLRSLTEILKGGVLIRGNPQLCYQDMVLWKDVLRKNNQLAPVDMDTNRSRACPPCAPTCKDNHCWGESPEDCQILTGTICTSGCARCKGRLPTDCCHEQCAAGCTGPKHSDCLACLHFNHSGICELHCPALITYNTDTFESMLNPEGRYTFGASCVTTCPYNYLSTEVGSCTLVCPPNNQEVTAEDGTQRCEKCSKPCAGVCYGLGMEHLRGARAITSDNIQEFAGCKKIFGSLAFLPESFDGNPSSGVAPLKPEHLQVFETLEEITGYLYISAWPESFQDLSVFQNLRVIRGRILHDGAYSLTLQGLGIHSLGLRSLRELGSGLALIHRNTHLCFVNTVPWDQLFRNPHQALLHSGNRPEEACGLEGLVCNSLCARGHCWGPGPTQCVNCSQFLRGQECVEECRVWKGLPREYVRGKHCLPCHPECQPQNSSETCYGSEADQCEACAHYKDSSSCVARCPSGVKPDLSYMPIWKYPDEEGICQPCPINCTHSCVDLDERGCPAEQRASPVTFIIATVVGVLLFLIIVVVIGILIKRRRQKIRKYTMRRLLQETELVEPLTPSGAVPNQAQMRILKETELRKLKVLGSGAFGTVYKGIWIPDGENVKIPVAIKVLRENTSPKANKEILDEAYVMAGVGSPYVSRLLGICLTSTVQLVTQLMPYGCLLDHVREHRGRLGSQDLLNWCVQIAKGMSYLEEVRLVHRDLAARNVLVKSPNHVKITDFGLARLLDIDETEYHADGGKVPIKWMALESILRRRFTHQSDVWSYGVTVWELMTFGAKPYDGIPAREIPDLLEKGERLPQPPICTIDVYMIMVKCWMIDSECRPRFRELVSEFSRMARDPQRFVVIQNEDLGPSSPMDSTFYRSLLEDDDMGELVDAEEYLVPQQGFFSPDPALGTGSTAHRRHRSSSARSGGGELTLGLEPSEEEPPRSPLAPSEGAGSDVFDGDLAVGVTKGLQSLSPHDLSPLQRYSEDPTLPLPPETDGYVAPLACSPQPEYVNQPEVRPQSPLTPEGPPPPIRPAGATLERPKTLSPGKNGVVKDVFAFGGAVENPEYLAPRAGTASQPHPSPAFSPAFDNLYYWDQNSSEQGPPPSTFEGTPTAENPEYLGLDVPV

HER2-Fc protein = target: T2, HER2-Fc protein (Homo sapiens, UniProt P04626); test: SPR; Biacore 3000 System; binding to HER2-Fc protein; which partner was immobilised is not stated; conditions: both partners purified
T2 construct: human epidermal growth factor receptor type 2 (HER2), fused to Fc; Probably the extracellular domain of HER2; The source may stand in Supplementary Methods

[1] = target: T3, human epidermal growth factor receptor type 2 (HER2) on HER2-expressing carcinoma cells (Homo sapiens, endogenous on SKOV-3 cells, UniProt P04626); test: radioligand binding; cell-based affinity assay on HER2-expressing SKOV-3 cells; nonspecific binding measured with a 100-fold molar excess of trastuzumab; three therapy-level batches; conditions: one partner purified
T3 construct: human epidermal growth factor receptor type 2 (HER2), endogenous on SKOV-3 and BT474 cells; The assay tells which cell line was used; also called HER2 receptor; source: endogenous, on SKOV-3 human ovarian carcinoma cells and on BT474 human breast carcinoma cells

Binder	binding result (murine HER2)	Kd (HER2-Fc protein)	Kd [1]
B1	no binding	0.21 nM	–
B2	–	–	1.5 nM and 2.9 nM and 2.6 nM
B3	–	0.21 nM	–
